Values quoted from earlier work as cited in doi:10.1101/2025.11.30.690581.

Assays:
[1] = target: Lys66 (UniProt position 148, FTKKMKENAKK); assay: stability; conditions: apparent pKa of the native-state ensemble in the reference Δ+PHS background
[2] = target: Lys92 (UniProt position 174, RGLAYKYADGK); assay: stability; conditions: apparent pKa of the native-state ensemble in the reference Δ+PHS background

Substance | pKa [1] | pKa [2]
Staphylococcal nuclease Δ+PHS V66K (reference protein with Lys-66) (Staphylococcus aureus; G50F;V51N;P117G;H124L;S128A;del44-49;V66K) | 5.7 | –
Staphylococcal nuclease Δ+PHS I92K (reference protein with Lys-92) (Staphylococcus aureus; G50F;V51N;P117G;H124L;S128A;del44-49;I92K) | – | 5.2
